According to the Human Domainome abundance scans (Beltran et al. 2025):
± gives the uncertainty stated by the source.

Test: abundance fitness (aPCA) (normalised: wild type 0, dead -1); higher = more abundant; growth selection in yeast, the domain comes from the species named
Conditions: Homo sapiens

Substance | abundance fitness
Lipoamide acyltransferase component of branched-chain alpha-keto acid dehydrogenase complex, mitochondrial T171M, P11182 | 0.031 ± 0.062
Lipoamide acyltransferase component of branched-chain alpha-keto acid dehydrogenase complex, mitochondrial T171N, P11182 | -0.012 ± 0.058
Lipoamide acyltransferase component of branched-chain alpha-keto acid dehydrogenase complex, mitochondrial T171P, P11182 | -0.422 ± 0.11
Lipoamide acyltransferase component of branched-chain alpha-keto acid dehydrogenase complex, mitochondrial T171Q, P11182 | -0.391 ± 0.09
Lipoamide acyltransferase component of branched-chain alpha-keto acid dehydrogenase complex, mitochondrial T171R, P11182 | -0.578 ± 0.058
Lipoamide acyltransferase component of branched-chain alpha-keto acid dehydrogenase complex, mitochondrial T171S, P11182 | -0.267 ± 0.075
Lipoamide acyltransferase component of branched-chain alpha-keto acid dehydrogenase complex, mitochondrial T171V, P11182 | 0.019 ± 0.057
Lipoamide acyltransferase component of branched-chain alpha-keto acid dehydrogenase complex, mitochondrial T171W, P11182 | -0.49 ± 0.075
Lipoamide acyltransferase component of branched-chain alpha-keto acid dehydrogenase complex, mitochondrial T171Y, P11182 | -0.022 ± 0.062
Lipoamide acyltransferase component of branched-chain alpha-keto acid dehydrogenase complex, mitochondrial T174A, P11182 | -0.347 ± 0.066
Lipoamide acyltransferase component of branched-chain alpha-keto acid dehydrogenase complex, mitochondrial T174C, P11182 | -0.141 ± 0.081
Lipoamide acyltransferase component of branched-chain alpha-keto acid dehydrogenase complex, mitochondrial T174D, P11182 | 0.003 ± 0.058
Lipoamide acyltransferase component of branched-chain alpha-keto acid dehydrogenase complex, mitochondrial T174E, P11182 | -0.389 ± 0.053
Lipoamide acyltransferase component of branched-chain alpha-keto acid dehydrogenase complex, mitochondrial T174F, P11182 | -0.403 ± 0.075
Lipoamide acyltransferase component of branched-chain alpha-keto acid dehydrogenase complex, mitochondrial T174G, P11182 | -0.39 ± 0.038
Lipoamide acyltransferase component of branched-chain alpha-keto acid dehydrogenase complex, mitochondrial T174H, P11182 | -0.206 ± 0.069
Lipoamide acyltransferase component of branched-chain alpha-keto acid dehydrogenase complex, mitochondrial T174I, P11182 | -0.601 ± 0.11
Lipoamide acyltransferase component of branched-chain alpha-keto acid dehydrogenase complex, mitochondrial T174K, P11182 | -0.379 ± 0.063
Lipoamide acyltransferase component of branched-chain alpha-keto acid dehydrogenase complex, mitochondrial T174L, P11182 | -0.724 ± 0.059
Lipoamide acyltransferase component of branched-chain alpha-keto acid dehydrogenase complex, mitochondrial T174M, P11182 | -0.643 ± 0.084
Lipoamide acyltransferase component of branched-chain alpha-keto acid dehydrogenase complex, mitochondrial T174N, P11182 | -0.064 ± 0.13
Lipoamide acyltransferase component of branched-chain alpha-keto acid dehydrogenase complex, mitochondrial T174V, P11182 | -0.773 ± 0.052
Lipoamide acyltransferase component of branched-chain alpha-keto acid dehydrogenase complex, mitochondrial T174W, P11182 | -0.787 ± 0.045
Lipoamide acyltransferase component of branched-chain alpha-keto acid dehydrogenase complex, mitochondrial T213C, P11182 | -0.179 ± 0.074

Substance | abundance fitness
Lipoamide acyltransferase component of branched-chain alpha-keto acid dehydrogenase complex, mitochondrial T213D, P11182 | 0.049 ± 0.058
Lipoamide acyltransferase component of branched-chain alpha-keto acid dehydrogenase complex, mitochondrial T213F, P11182 | -0.222 ± 0.069
Lipoamide acyltransferase component of branched-chain alpha-keto acid dehydrogenase complex, mitochondrial T213G, P11182 | 0.093 ± 0.036
Lipoamide acyltransferase component of branched-chain alpha-keto acid dehydrogenase complex, mitochondrial T213H, P11182 | -0.062 ± 0.058
Lipoamide acyltransferase component of branched-chain alpha-keto acid dehydrogenase complex, mitochondrial T213K, P11182 | 0.145 ± 0.071
Lipoamide acyltransferase component of branched-chain alpha-keto acid dehydrogenase complex, mitochondrial T213L, P11182 | -0.185 ± 0.056
Lipoamide acyltransferase component of branched-chain alpha-keto acid dehydrogenase complex, mitochondrial T213M, P11182 | -0.122 ± 0.097
Lipoamide acyltransferase component of branched-chain alpha-keto acid dehydrogenase complex, mitochondrial T213P, P11182 | -0.075 ± 0.065
Lipoamide acyltransferase component of branched-chain alpha-keto acid dehydrogenase complex, mitochondrial T213Q, P11182 | 0.005 ± 0.047
Lipoamide acyltransferase component of branched-chain alpha-keto acid dehydrogenase complex, mitochondrial T213R, P11182 | 0.066 ± 0.045
Lipoamide acyltransferase component of branched-chain alpha-keto acid dehydrogenase complex, mitochondrial T213S, P11182 | -0.008 ± 0.046
Lipoamide acyltransferase component of branched-chain alpha-keto acid dehydrogenase complex, mitochondrial T213V, P11182 | -0.028 ± 0.048
Lipoamide acyltransferase component of branched-chain alpha-keto acid dehydrogenase complex, mitochondrial T213W, P11182 | -0.247 ± 0.053
Lipoamide acyltransferase component of branched-chain alpha-keto acid dehydrogenase complex, mitochondrial T213Y, P11182 | -0.386 ± 0.15
Lipoamide acyltransferase component of branched-chain alpha-keto acid dehydrogenase complex, mitochondrial V177A, P11182 | 0.038 ± 0.04
Lipoamide acyltransferase component of branched-chain alpha-keto acid dehydrogenase complex, mitochondrial V177D, P11182 | -0.417 ± 0.073
Lipoamide acyltransferase component of branched-chain alpha-keto acid dehydrogenase complex, mitochondrial V177E, P11182 | -0.385 ± 0.049
Lipoamide acyltransferase component of branched-chain alpha-keto acid dehydrogenase complex, mitochondrial V177F, P11182 | -0.818 ± 0.076
Lipoamide acyltransferase component of branched-chain alpha-keto acid dehydrogenase complex, mitochondrial V177G, P11182 | -0.289 ± 0.038
Lipoamide acyltransferase component of branched-chain alpha-keto acid dehydrogenase complex, mitochondrial V177H, P11182 | -0.547 ± 0.15
Lipoamide acyltransferase component of branched-chain alpha-keto acid dehydrogenase complex, mitochondrial V177I, P11182 | -0.139 ± 0.058
Lipoamide acyltransferase component of branched-chain alpha-keto acid dehydrogenase complex, mitochondrial V177L, P11182 | -0.321 ± 0.04
Lipoamide acyltransferase component of branched-chain alpha-keto acid dehydrogenase complex, mitochondrial V177M, P11182 | -0.329 ± 0.078
Lipoamide acyltransferase component of branched-chain alpha-keto acid dehydrogenase complex, mitochondrial V177N, P11182 | -0.742 ± 0.26
